Data taken from the supplement of paper PMC12042874.
± gives the uncertainty stated by the source.

Assay: amyloid nucleation score (Sup35N fusion, yeast selection) (log enrichment); library NNK3; higher = more nucleation; inactive = no reads after selection
Method in brief: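 Sup35N fusions to peptides of 20 random codons were expressed in psi-negative yeast, induced 24 hours with 100 μM copper sulfate, and grown 7 days at 30°C on medium lacking adenine and uracil. Input and output plasmid inserts were sequenced by Illumina. The nucleation score is the DiMSum log enrichment of output over input reads, centred on the mode score of non-aggregating sequences. Sequences with under 100 input reads were excluded.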

Substance | amyloid nucleation score
VVVMPTNSECCYQYGGMFPM | inactive
SSSRMFSSLFSVCIWVDTII | inactive
NTLDERDCRSKLFAFLLRPS | inactive
SSSTGAFGDSGGR | inactive
FYYANMTRSKILAPFSRPSR | inactive
PGYSHVRLVVSSPPLWTDLA | inactive
RNVIANEGLCQKR | inactive
KNGKWRGISSYRNRRFNTGI | inactive
RTWTSCDVICLGICLRSLAK | inactive
SKWSTEFLTCHT | inactive
YIMDLKITANVLTYVACARR | 1.4 ± 0.097
YCLFASMKDDAQGTQNCDRS | inactive
AFCRNRTNVCMICYLRSG | 0.907 ± 0.17
FHSSS | inactive
MLDISMEVSGCSILS | -0.261 ± 0.52
ILPFRWIVY | inactive
NISVLIRCLWNFSEGKAFLA | inactive
EVRRRDLYLWKASETLLRLL | inactive
PSYFVI | inactive
YNGLVGLSNPCTIWESGWVW | inactive
VVWQTHQVHMVMYERVCTWD | inactive
DMGTYVSCRRIFKNGRYSGC | inactive

Substance | amyloid nucleation score
EEFSGNLCDFRLQPRSCCEN | inactive
IDQCNIVGTRKNGHAL | inactive
NMMSGRSQSVINFVYVDFHP | -0.183 ± 0.66
LTKGLSAMLQFRWRAVFKNG | inactive
LQIPKPFAMKYTMFQRKQND | inactive
IIFFNSDMNLGTDV | inactive
WRSMAFPVVK | 0.988 ± 0.13
ILVFVFSLRRIFAYMAVMSG | inactive
CVLCYRWSHMVLTPGMTGRD | inactive
QCSMDRNT | inactive
FIWVFCD | inactive
QWKKWLDTACKWVGVGGTIR | inactive
GSMFFNVC | 0.254 ± 0.28
MSYSFKAISAHNKQSVNNVW | inactive
SDFDMFSCLGNRNLHCSVSV | inactive
TLLVCNMWNFSRNIMVHIGV | inactive
WMVYDSLILFHDVRRSYLPM | inactive
NNCVGCPCFSYRS | 3.04 ± 0.072
DAGLRLLYSSLTGRL | inactive
EKMDLPRAYGDIRTPKEVVR | 0.788 ± 0.12
PYFFSLRNPRI | inactive
SLRRKIGLLIFFDNLIF | inactive

Substance | amyloid nucleation score
RLLPFIGIYNFSKKWLSKAL | -0.313 ± 0.75
ATLRAFATVYFHLVTHMFNF | inactive
IVSNTTPTQPTSVLVNYSVR | inactive
WISSGDIGRVVDWIQVCIEP | inactive
SIFPF | inactive
GCSRWCFGDTGIE | inactive
RTTINLLMCGHVMGFNSCLF | 1.99 ± 0.084
RREPQCYYWGAYCSVAASPA | inactive
NFFVKTNRHGNVTTFGGR | inactive
AYSSWALMLGHTMCIYGGFR | 1.55 ± 0.13
DVSRVIA | inactive
YHTPCSTSDVARRGRYSRRD | inactive
LYVLWRLGKQCHTFWFFSSI | 0.265 ± 0.44
EGRRIAGNARDRDHDLQVGR | inactive
MWSDLGV | -0.173 ± 0.87
VGILLFFYLTNVEQAVTFVR | inactive
KGVFRNAFELFKYHFSHAGM | inactive
GSTYTVGSAGSSMTTRDLDM | inactive
KCKANPEDNVRFLRLVYGAS | inactive
TASPCFNSYLKNFVLGLPTT | inactive
